Laboratory results reported in paper PMC5916898, “Global profiling of protein–DNA and protein–nucleosome binding affinities using quantitative mass spectrometry”.

T1: ESRRA (Homo sapiens, UniProt P11474)
T1 sequence: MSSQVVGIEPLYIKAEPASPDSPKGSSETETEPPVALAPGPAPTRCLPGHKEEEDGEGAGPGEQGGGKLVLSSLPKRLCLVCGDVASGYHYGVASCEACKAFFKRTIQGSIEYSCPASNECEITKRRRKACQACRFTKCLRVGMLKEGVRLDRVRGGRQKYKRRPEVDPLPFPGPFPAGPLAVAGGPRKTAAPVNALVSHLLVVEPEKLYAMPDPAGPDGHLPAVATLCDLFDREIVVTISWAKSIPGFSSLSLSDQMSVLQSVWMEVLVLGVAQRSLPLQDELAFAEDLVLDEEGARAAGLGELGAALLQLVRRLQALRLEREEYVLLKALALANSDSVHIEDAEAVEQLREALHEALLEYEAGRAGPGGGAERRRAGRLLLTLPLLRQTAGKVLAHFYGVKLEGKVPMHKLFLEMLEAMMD

T2: ZBTB10 (Homo sapiens, UniProt Q96DT7)
T2 sequence: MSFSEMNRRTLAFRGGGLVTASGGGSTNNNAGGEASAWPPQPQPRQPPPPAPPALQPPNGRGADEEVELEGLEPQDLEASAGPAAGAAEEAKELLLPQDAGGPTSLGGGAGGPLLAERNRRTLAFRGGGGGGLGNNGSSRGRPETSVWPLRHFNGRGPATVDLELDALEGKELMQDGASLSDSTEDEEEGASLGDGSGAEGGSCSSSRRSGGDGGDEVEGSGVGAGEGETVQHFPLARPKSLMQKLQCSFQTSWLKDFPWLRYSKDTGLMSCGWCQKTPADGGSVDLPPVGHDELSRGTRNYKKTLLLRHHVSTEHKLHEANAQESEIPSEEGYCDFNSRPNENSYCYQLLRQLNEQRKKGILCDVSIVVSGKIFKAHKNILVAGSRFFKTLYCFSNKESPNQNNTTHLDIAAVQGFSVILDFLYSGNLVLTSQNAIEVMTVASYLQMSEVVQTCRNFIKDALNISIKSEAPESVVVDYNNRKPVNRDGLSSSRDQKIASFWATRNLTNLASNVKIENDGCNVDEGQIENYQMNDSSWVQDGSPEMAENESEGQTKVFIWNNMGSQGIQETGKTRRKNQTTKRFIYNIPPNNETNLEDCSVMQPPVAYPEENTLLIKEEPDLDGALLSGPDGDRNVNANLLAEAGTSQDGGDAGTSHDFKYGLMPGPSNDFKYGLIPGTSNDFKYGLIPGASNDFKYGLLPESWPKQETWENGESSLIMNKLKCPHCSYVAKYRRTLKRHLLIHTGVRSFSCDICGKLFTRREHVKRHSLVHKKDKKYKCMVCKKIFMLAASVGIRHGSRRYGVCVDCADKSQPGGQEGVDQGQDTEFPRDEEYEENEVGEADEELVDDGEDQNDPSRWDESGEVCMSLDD

T3: ZNF148 (Homo sapiens, UniProt Q9UQR1)
T3 sequence: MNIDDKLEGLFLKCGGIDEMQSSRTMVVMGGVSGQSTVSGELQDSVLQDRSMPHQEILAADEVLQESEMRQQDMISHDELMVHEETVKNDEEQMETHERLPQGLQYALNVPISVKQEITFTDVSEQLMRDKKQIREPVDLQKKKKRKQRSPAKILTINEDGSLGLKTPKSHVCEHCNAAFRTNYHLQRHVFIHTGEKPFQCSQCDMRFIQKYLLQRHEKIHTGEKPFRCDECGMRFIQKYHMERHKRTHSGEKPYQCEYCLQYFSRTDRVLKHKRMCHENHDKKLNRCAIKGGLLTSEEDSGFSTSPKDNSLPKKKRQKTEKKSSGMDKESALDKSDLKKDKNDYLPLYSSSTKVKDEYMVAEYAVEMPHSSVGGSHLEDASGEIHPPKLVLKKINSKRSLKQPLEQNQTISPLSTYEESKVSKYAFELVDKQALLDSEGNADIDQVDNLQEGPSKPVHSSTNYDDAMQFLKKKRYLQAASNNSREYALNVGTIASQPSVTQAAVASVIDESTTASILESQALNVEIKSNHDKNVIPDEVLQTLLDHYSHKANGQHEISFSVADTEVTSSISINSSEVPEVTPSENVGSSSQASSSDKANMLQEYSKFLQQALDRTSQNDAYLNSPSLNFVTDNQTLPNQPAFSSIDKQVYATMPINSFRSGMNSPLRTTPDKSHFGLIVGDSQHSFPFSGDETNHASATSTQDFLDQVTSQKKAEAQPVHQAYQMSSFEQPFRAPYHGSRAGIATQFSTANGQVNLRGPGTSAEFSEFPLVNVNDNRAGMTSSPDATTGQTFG

B1: CTCF (dsDNA)
DNA 1: TCAGAGTGGCGGCCAGCAGGGGGCGCCCTTGCCAGA
DNA 2: TCTGGCAAGGGCGCCCCCTGCTGGCCGCCACTCTGA
B2: SP/KLF wild-type (dsDNA)
DNA 1: GAGAGCCCCGCCCCCTGGCT
DNA 2: AGCCAGGGGGCGGGGCTCTC

How the values were obtained:
ESRRA = target: T1, ESRRA; experiment: pulldown; 150 mM NaCl, 50 mM Tris pH 8, 0.25% NP-40, 1 mM TCEP; 4 C, 2 h; 100 ug HeLa nuclear lysate; conditions: protein: extract; label: 5' biotin (strand 1)
YY1 = YY1 (Homo sapiens, UniProt P25490); experiment: as above; conditions: protein: extract; label: 5' biotin (strand 1)
YY1, sequence (P25490 whole entry): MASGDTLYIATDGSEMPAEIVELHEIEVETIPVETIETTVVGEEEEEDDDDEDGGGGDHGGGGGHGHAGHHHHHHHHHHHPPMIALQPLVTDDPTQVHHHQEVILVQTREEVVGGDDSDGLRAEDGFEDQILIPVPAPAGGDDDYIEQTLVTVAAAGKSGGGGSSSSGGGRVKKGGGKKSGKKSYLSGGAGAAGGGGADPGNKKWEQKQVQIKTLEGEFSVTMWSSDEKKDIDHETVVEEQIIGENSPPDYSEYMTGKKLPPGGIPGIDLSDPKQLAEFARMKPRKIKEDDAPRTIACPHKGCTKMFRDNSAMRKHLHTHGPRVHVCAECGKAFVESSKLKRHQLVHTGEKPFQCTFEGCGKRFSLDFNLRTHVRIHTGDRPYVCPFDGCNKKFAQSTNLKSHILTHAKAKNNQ

ZBTB10 = target: T2, ZBTB10; experiment: as above; conditions: protein: extract; label: 5' biotin (strand 1)
SMAD4 = SMAD4 (Homo sapiens, UniProt Q13485); experiment: as above; conditions: protein: extract; label: 5' biotin (strand 1)
SMAD4, sequence (Q13485 whole entry): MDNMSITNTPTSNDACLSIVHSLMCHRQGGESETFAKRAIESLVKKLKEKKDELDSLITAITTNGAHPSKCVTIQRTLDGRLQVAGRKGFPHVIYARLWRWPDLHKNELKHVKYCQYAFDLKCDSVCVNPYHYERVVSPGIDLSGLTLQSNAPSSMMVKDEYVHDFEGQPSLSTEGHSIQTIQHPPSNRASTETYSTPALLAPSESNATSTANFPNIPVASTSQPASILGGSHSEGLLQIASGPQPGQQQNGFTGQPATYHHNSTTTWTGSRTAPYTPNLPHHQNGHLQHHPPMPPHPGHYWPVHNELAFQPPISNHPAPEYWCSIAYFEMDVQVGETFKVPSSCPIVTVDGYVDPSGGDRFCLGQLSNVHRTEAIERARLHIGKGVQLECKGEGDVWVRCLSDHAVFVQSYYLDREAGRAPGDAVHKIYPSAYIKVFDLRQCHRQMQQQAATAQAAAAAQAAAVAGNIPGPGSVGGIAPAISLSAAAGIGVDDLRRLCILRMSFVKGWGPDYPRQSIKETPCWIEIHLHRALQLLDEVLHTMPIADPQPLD

ZNF148 = target: T3, ZNF148; experiment: competition; 150 mM NaCl, 50 mM Tris pH 8, 0.25% NP-40, 1 mM TCEP; 4 C, 2 h; 100 ug HeLa nuclear lysate; free competitor against 200 nM immobilised SP/KLF wild-type; conditions: protein: extract
KLF10 = KLF10 (Homo sapiens, UniProt Q13118); experiment: as above; conditions: protein: extract
KLF10, sequence (Q13118 whole entry): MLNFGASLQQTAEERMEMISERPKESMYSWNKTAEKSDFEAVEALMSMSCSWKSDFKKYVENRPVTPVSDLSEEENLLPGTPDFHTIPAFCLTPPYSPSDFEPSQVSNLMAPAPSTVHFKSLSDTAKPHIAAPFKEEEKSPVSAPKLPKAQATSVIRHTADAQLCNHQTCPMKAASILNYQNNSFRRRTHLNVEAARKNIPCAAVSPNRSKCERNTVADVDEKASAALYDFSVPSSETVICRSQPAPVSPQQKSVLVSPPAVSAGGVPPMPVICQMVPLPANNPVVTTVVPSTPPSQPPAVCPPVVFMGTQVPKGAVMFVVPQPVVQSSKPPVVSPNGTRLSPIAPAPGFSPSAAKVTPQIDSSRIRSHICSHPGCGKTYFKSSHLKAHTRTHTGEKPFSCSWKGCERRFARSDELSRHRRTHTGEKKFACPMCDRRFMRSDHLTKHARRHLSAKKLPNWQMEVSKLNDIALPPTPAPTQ

KLF4 = KLF4 (Homo sapiens, UniProt O43474); experiment: as above; conditions: protein: extract
KLF4, sequence (O43474 whole entry): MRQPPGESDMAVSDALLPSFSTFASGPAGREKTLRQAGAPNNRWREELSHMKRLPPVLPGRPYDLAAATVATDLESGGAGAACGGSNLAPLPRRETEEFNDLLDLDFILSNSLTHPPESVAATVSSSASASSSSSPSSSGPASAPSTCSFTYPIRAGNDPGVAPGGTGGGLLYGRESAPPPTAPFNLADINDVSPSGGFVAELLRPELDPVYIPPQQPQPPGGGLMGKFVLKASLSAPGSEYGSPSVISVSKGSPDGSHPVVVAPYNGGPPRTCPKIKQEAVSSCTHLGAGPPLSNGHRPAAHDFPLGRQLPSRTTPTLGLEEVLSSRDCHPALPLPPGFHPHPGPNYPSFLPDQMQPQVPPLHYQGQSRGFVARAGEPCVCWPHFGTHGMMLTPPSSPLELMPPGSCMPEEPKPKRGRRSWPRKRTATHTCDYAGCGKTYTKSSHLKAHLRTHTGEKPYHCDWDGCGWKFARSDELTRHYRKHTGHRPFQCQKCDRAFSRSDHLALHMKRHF

SP4 = SP4 (Homo sapiens, UniProt Q02446); experiment: as above; conditions: protein: extract
SP4, sequence (Q02446 whole entry): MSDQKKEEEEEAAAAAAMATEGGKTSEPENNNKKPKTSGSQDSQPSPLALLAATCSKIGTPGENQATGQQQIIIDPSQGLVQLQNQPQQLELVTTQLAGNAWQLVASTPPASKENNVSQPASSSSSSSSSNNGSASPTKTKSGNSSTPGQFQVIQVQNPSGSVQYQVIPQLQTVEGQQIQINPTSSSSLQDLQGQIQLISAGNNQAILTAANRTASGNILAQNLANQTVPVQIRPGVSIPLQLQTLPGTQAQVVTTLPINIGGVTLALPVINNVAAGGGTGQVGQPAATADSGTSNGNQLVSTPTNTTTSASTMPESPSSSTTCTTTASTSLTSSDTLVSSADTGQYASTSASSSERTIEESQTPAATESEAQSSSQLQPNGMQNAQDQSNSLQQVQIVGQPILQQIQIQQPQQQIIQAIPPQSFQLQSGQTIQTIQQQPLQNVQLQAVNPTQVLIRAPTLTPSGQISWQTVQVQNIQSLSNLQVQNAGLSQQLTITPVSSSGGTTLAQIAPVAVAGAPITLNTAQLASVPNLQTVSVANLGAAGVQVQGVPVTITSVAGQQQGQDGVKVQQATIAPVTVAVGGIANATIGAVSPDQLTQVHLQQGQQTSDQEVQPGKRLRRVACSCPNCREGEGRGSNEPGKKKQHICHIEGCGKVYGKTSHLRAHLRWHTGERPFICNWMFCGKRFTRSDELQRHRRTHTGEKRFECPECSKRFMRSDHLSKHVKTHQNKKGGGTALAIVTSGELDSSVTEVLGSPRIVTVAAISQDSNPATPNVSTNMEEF

Row | Binder | apparent K (half saturation) (ESRRA) | apparent K (half saturation) (YY1) | apparent K (half saturation) (ZBTB10) | apparent K (half saturation) (SMAD4) | IC50 (ZNF148) | IC50 (KLF10) | IC50 (KLF4) | IC50 (SP4)
1 | B1 | 319 nM | 400 nM | 40.4 nM | 153 nM | – | – | – | –
2 | B2 | – | – | – | – | 164 nM | 111 nM | 229 nM | 87.5 nM
